Eight molecules from PMC4113420 (Molecular cell, 2014) can be followed below.

The series “SEC” concerns the molecule itself. As to the kind of experiment: SEC. On the technique in general: In gel filtration, larger molecules generally elute earlier.
The target of a further series is Msh2-Msh6 (S. cerevisiae, UniProt P25847 1-964; Q03834 1-1242). As to the kind of experiment: SPR.
Chain of Msh2-Msh6 (P25847 whole entry, chain 1 of 2): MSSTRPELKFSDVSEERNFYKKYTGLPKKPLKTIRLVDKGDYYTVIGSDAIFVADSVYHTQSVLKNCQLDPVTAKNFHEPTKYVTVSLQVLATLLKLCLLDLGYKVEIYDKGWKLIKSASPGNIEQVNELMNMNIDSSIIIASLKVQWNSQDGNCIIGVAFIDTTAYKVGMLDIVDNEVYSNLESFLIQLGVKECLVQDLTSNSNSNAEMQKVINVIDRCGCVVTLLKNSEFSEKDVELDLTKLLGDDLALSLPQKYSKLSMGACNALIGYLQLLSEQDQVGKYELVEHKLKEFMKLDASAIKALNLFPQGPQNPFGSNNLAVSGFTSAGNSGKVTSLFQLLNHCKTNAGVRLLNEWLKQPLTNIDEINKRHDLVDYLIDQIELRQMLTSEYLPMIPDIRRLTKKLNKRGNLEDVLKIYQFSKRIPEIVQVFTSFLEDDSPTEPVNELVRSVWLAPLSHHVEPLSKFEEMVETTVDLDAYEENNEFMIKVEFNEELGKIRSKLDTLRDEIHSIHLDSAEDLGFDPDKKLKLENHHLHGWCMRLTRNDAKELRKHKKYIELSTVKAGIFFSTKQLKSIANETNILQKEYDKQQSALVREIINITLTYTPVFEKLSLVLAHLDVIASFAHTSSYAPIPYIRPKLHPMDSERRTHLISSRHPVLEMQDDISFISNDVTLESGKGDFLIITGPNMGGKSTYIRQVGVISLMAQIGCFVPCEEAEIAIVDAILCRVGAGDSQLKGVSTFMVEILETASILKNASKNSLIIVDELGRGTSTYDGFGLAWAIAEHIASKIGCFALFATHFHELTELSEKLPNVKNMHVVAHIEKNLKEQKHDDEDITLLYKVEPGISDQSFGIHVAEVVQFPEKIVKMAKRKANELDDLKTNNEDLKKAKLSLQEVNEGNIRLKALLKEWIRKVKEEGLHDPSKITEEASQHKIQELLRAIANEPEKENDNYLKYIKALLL
Chain of Msh2-Msh6 (Q03834 whole entry, chain 2 of 2): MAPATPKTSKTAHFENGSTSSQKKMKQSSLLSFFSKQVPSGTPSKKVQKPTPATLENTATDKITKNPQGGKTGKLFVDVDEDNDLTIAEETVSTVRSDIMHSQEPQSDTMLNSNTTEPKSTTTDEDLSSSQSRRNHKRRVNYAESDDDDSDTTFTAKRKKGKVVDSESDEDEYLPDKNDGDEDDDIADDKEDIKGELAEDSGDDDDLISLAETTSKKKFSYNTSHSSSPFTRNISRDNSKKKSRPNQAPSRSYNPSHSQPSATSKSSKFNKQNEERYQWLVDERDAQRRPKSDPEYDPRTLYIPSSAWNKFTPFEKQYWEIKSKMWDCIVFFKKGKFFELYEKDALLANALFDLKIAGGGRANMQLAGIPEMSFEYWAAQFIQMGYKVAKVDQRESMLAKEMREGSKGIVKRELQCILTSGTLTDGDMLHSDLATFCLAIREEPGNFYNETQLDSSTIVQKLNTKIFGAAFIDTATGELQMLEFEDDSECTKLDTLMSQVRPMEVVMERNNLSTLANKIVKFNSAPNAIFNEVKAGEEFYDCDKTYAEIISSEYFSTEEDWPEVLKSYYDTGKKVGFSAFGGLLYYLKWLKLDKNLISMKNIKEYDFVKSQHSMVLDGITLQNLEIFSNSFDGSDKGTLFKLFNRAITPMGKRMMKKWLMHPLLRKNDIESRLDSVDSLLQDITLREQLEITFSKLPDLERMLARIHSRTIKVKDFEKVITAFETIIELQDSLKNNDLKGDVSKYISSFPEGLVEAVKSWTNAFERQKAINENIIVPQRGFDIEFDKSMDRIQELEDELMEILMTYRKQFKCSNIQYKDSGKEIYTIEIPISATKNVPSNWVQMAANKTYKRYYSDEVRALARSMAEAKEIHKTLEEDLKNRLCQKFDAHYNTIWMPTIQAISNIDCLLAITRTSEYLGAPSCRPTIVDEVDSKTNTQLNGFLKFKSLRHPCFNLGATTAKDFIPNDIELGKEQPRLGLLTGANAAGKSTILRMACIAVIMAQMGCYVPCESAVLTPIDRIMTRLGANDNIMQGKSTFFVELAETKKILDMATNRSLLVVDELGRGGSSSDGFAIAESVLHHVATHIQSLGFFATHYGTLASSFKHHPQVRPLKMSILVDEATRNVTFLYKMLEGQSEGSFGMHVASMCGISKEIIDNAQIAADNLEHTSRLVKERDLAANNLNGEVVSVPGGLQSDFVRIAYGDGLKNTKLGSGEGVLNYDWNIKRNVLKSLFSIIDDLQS

B1: Wild-type PCNA (S. cerevisiae, encoded by POL30) (natural protein)
chain: MLEAKFEEASLFKRIIDGFKDCVQLVNFQCKEDGIIAQAVDDSRVLLVSLEIGVEAFQEYRCDHPVTLGMDLTSLSKILRCGNNTDTLTLIADNTPDSIILLFEDTKKDRIAEYSLKLMDIDADFLKIEELQYDSTLSLPSSEFSKIVRDLSQLSDSINIMITKETIKFVADGDIGSGSVIIKPFVDMEHPETSIKLEMDQPVDLTFGAKYLLDIIKGSSLSDRVGIRLSSEAPALFQFDLKSGFLQFFLAPKFNDEE
modifications: biotinylated when bound to the SPR chip (site not stated)
With B1, the binding result in “SEC” and with Msh2-Msh6 was “binds” in each case.

B2: PCNA-C81R (natural protein, S. cerevisiae)
chain: MLEAKFEEASLFKRIIDGFKDCVQLVNFQCKEDGIIAQAVDDSRVLLVSLEIGVEAFQEYRCDHPVTLGMDLTSLSKILRRGNNTDTLTLIADNTPDSIILLFEDTKKDRIAEYSLKLMDIDADFLKIEELQYDSTLSLPSSEFSKIVRDLSQLSDSINIMITKETIKFVADGDIGSGSVIIKPFVDMEHPETSIKLEMDQPVDLTFGAKYLLDIIKGSSLSDRVGIRLSSEAPALFQFDLKSGFLQFFLAPKFNDEE
modifications: biotinylated when bound to the SPR chip (site not stated)
As to B2, in the series with Msh2-Msh6, the binding result is given as “binds”.

B3: PCNA-F254L (natural protein, S. cerevisiae)
chain: MLEAKFEEASLFKRIIDGFKDCVQLVNFQCKEDGIIAQAVDDSRVLLVSLEIGVEAFQEYRCDHPVTLGMDLTSLSKILRCGNNTDTLTLIADNTPDSIILLFEDTKKDRIAEYSLKLMDIDADFLKIEELQYDSTLSLPSSEFSKIVRDLSQLSDSINIMITKETIKFVADGDIGSGSVIIKPFVDMEHPETSIKLEMDQPVDLTFGAKYLLDIIKGSSLSDRVGIRLSSEAPALFQFDLKSGFLQFFLAPKLNDEE
modifications: biotinylated when bound to the SPR chip (site not stated)
Regarding B3, the binding result in “SEC” and with Msh2-Msh6 was “binds” throughout.

B4: PCNA-K217E (natural protein, S. cerevisiae)
chain: MLEAKFEEASLFKRIIDGFKDCVQLVNFQCKEDGIIAQAVDDSRVLLVSLEIGVEAFQEYRCDHPVTLGMDLTSLSKILRCGNNTDTLTLIADNTPDSIILLFEDTKKDRIAEYSLKLMDIDADFLKIEELQYDSTLSLPSSEFSKIVRDLSQLSDSINIMITKETIKFVADGDIGSGSVIIKPFVDMEHPETSIKLEMDQPVDLTFGAKYLLDIIEGSSLSDRVGIRLSSEAPALFQFDLKSGFLQFFLAPKFNDEE
modifications: biotinylated when bound to the SPR chip (site not stated)
B4: the binding result in the series “SEC” and with Msh2-Msh6 was “binds” throughout.

B5: PCNA-C22Y (natural protein, S. cerevisiae)
chain: MLEAKFEEASLFKRIIDGFKDYVQLVNFQCKEDGIIAQAVDDSRVLLVSLEIGVEAFQEYRCDHPVTLGMDLTSLSKILRCGNNTDTLTLIADNTPDSIILLFEDTKKDRIAEYSLKLMDIDADFLKIEELQYDSTLSLPSSEFSKIVRDLSQLSDSINIMITKETIKFVADGDIGSGSVIIKPFVDMEHPETSIKLEMDQPVDLTFGAKYLLDIIKGSSLSDRVGIRLSSEAPALFQFDLKSGFLQFFLAPKFNDEE
modifications: biotinylated when bound to the SPR chip (site not stated)
Turning to B5, the binding result in the series “SEC” and with Msh2-Msh6 was “binds” each time.

B6: PCNA-E143K (natural protein, S. cerevisiae)
chain: MLEAKFEEASLFKRIIDGFKDCVQLVNFQCKEDGIIAQAVDDSRVLLVSLEIGVEAFQEYRCDHPVTLGMDLTSLSKILRCGNNTDTLTLIADNTPDSIILLFEDTKKDRIAEYSLKLMDIDADFLKIEELQYDSTLSLPSSKFSKIVRDLSQLSDSINIMITKETIKFVADGDIGSGSVIIKPFVDMEHPETSIKLEMDQPVDLTFGAKYLLDIIKGSSLSDRVGIRLSSEAPALFQFDLKSGFLQFFLAPKFNDEE
modifications: biotinylated when bound to the SPR chip (site not stated)
Consider B6, for which the binding result in “SEC” and with Msh2-Msh6 was “binds” each time.

B7: PCNA-K13E (natural protein, S. cerevisiae)
chain: MLEAKFEEASLFERIIDGFKDCVQLVNFQCKEDGIIAQAVDDSRVLLVSLEIGVEAFQEYRCDHPVTLGMDLTSLSKILRCGNNTDTLTLIADNTPDSIILLFEDTKKDRIAEYSLKLMDIDADFLKIEELQYDSTLSLPSSEFSKIVRDLSQLSDSINIMITKETIKFVADGDIGSGSVIIKPFVDMEHPETSIKLEMDQPVDLTFGAKYLLDIIKGSSLSDRVGIRLSSEAPALFQFDLKSGFLQFFLAPKFNDEE
modifications: biotinylated when bound to the SPR chip (site not stated)
Turning to B7, the binding result in the series “SEC” and in the series with Msh2-Msh6 was “binds” throughout.

B8: PCNA-L68S (natural protein, S. cerevisiae)
chain: MLEAKFEEASLFKRIIDGFKDCVQLVNFQCKEDGIIAQAVDDSRVLLVSLEIGVEAFQEYRCDHPVTSGMDLTSLSKILRCGNNTDTLTLIADNTPDSIILLFEDTKKDRIAEYSLKLMDIDADFLKIEELQYDSTLSLPSSEFSKIVRDLSQLSDSINIMITKETIKFVADGDIGSGSVIIKPFVDMEHPETSIKLEMDQPVDLTFGAKYLLDIIKGSSLSDRVGIRLSSEAPALFQFDLKSGFLQFFLAPKFNDEE
modifications: biotinylated when bound to the SPR chip (site not stated)
On to B8, for which, in the series with Msh2-Msh6, the binding result is listed as “binds”.
